Data published in patent US20020182673A1.

Experiments:
[1] = target: recombinant IL-17E (baculovirus, His-tag removed by thrombin) (human); assay: SPR (BIAcore 1000), IL-17E immobilised, IL-17RH1 ECD in solution, 1:1 model
[2] = target: IL-17RH1 (PRO5801) ECD (residues 1-275), baculovirus, His-tag removed (human); assay: SPR (BIAcore 1000), IL-17RH1 ECD immobilised, IL-17E in solution, 1:1 model

IL-17RH1 (PRO5801) ECD (residues 1-275), baculovirus, His-tag removed (receptor)
Kd [1]: 1.1 nM
koff [1]: 0.0007 s⁻¹
kon [1]: 670000 M⁻¹ s⁻¹

recombinant IL-17E (baculovirus, His-tag removed by thrombin) (ligand)
Kd [2]: 1.4 nM
koff [2]: 0.00062 s⁻¹
kon [2]: 430000 M⁻¹ s⁻¹
